Data published in patent US20050079151A1, “Therapeutic agents for apoptosis-related diseases” (priority 1998, published 2005).

Key:
Bcl-2 = test: Effect for enhancing Bcl-2 expression (Western blotting); format: cell-based; details: G401 cells
Experimental: The effect of MK on the expression of the Bcl-2 gene was examined. Six groups were prepared; the untreated group, the cisplatin (100 μM) treated group, the human MK (100 ng/ml) treated group, the human MK (100 ng/ml)+cisplatin (100 μM) group, the mouse MK (100 ng/ml) treated group, and the mouse MK (100 ng/ml)+cisplatin (100 μM) treated group.
G401 cells were seeded on a 3.5 cm-dish and cultured in 10% FBS/DMEM until the cells became almost confluent. The cells were washed twice and cultured in 0.1% FBS/DMEM overnight. Then, human MK or mouse MK (JP-A No. Hei 8-196293) was added to the MK treatment groups at 100 ng/ml and cultured for six hours. Cisplatin was added to the cisplatin treatment group to 100 μM, and cultured for 2 hours. After culturing, the cells were washed with 0.1% FBS/DMEM three times, cultured in 0.1% FBS/DMEM for 10 hours, and washed with PBS three times.
Two hundred microliters of buffer [1% Triton X-100, 150 mM NaCl, 10 mM Tris (pH 7.4), 1.0 mM EGTA, 0.5% NP-40, 1 mM PMSF, 0.1 μg/ml apiotinin, 40 nM Iewpeptin] were added to each dish and kept on ice for 20 min. The cells in each dish were detached by a scraper, and mixed 8 to 10 times using a syringe with a 26-gauge needle. The cells of each dish were centrifuged in a centrifuge tube at 4° C. at 12000 rpm for 30 min. The precipitated proteins were quantified (BCA Kit; PIERCE). The precipitate prepared from each dish (50 μg) was analyzed by Western blotting using anti-Bcl-2 monoclonal antibody (500×) (Dako; Denmark) and anti-mouse HRP antibody (Jackson Immuno Research) (FIG. 6). The band in each lane is numerically shown (FIG. 7).

[1] = tested on: hippocampal region CA1 neurocytes; test: Apoptosis-inhibitory effect in vivo, transient forebrain ischemia, administration before ischemic damage; parameters: species or system Mongolian gerbil; details: for numbers of surviving nuclei contained in the CA1 region per unit length of CA1: mean±standard deviation, saline 18±25, Sham-op 265±38; for number of nuclei showing apoptosis positive reaction (TUNEL) against the total number of cells: saline 69.7±17.0, Sham-op 0.0±0.0; for numbers of neurocytes in CA1: 2 μg MK, saline 10±10, sham-op 263±31
Excerpt: (1) Six to 16 male Mongolian gerbils (6- to 8-week old, body weight: 60 to 80 g) for each group were housed in “HONEY MATIC M-3” (KIMURA MEDICAL INSTRUMENT LTD.), an anesthetic delivery device for Fluothane, and the container was filled with an appropriate amount of inhalation anesthetic “Fluothane” (halothane according to Japanese Phamacopeia). The anesthetized animals were fixed on an operating table equipped with an injection holder (NARISHINGE SCEITIFIC INSTRUMENT LAB.; TYPE SR-5N, No. 97024). After the head was subjected to midline incision, a hole for inserting a syringe of an appropriate size was made by a dental drill at a site 2 mm away from the bregma towards the left eyeball direction. Through this hole, 2 μl of 0.25 mg/ml, 0.5 mg/ml or 1 mg/ml MK solutions (0.5 μg, 1.0 μg, 2.0 μg ) (in physiological saline) were seperately injected into the ventricle with a microsyringe (HAMILTON MICROLITER #701). As control groups, a saline injected group and the sham operated (Sham-op) group were prepared. After injection into the ventricle, the mice were left for 4 min and the operated site was sutured. The chest was subjected to midline incision to expose both right and left common carotid arteries. The both arteries were ligated with two pieces of Sugita brain aneurysm clip (standard type; MIZUHO) to stop blood flow for 5 min, and the blood was circulated again. During ischemic loading, brain temperature and body temperature were maintained constant (37±0.2° C.). Each mouse was distinguished and housed in a nursery cage after coming out of anesthesia to breed, allowing the animals to freely intake water and food. After one week, the mice were fixed while perfusing with saline containing 0.2% heparin (Novo Heparin Injection 100; Japan Hoechet Marion Russell LTD) and 4% paraformaldehyde solution, and beheaded. The brain was excised using scissors, and immersed in 4% paraformaldehyde fixative for one day. The rear portion from 2 mm ahead of the bregma was divided into three using a double-edged razor (Feather). These sections were further fixed for 24 hours. Tissues containing dorsal hippocampus were dehydrated and penetrated, and embedded with paraffin.
A 5 μm section, from 0.5 to 1.0 mm from the tip of the hippocampus or from 1.4 to 1.9 mm behind the sagittal suture was prepared from this paraffin block and observed by the TUNEL method (In situ Apoptosis Detection Kit, TaKaRa). The results are shown in FIG. 8 (×25) and FIG. 9 (×100).
(2) By following the method described in (1), MK solution (0.063 μg, 0.125 μg, 0.25 μg, 0.5 μg, 1 fig, or 2 μg), was injected into the ventricle just before development of ischemic injury to examine protective effects of MK on delayed neuronal death. Seven days after the injury, the CA1 region were stained with hematoxylin-eosine. Micrographs in low magnification (×25) are shown in FIG. 10 (FIG. 10a: saline, FIG. 10b: Sham-op, FIG. 10c: MK 2 μg, FIG. 10d: MK 1 μg, FIG. 10e: MK 0.5 μg, FIG. 10f: MK 0.25 μg), and those in high magnification (×100) in FIG. 11 (FIG. 11a: saline, FIG. 11b: Sham-op, FIG. 11c: MK 2 μg, FIG. 11d: MK 1 vg, FIG. 11e: MK 0.5 vg, FIG. 11f: MK 0.25 μg).
For quantitative evaluation, the numbers of surviving nuclei contained in the CA1 region per unit length of CA1 were obtained (FIG. 12). The values were 18±25/mm(n=15, mean±standard deviation) for the saline administration group and 265±38 /mm (n=23) for the Sham-op group. For the 0.5, 1, or 2 μg MK administration groups, the values were 217±109 (n=7), 228±84 (n=8), and 243±82 (n=10), respectively. The values decreased when MK concentration was low (FIG. 12). There was a significant difference between the saline administrated group and MK administrated (0.5 to 2 μg MK) groups (ANOVA and post-hoc Fisher's PLSD teat, p<0.0001).
Whether the effect of MK administration (2 μg) continues was examined. […]

B1: MK: midkine, a heparin-binding growth and differentiation factor; human MK protein (SEQ ID NO: 3; or recombinant, secreted by yeast) (protein, UniProt P21741 21-143, looked up)
Midkine: VAKKKDKVKKGGPGSECAEWAWGPCTPSSKDCGVGFREGTCGAQTQRIRCRVPCNWKKEFGADCKYKFENWGACDGGTGTKVRQGTLKKARYNAQCQETIRVTKPCTPKTKAKAKAKKGKGKD
Bcl-2; MK 100 ng/ml, no cisplatin
  expression of Bcl-2: enhanced the expression of Bcl-2
Bcl-2; data not shown
  concentration showing the Bcl-2 enhancing effect: ≥ 10 ng/mL
[1]; 0.25 μg MK into the ventricle just before ischemic injury, seven days after
  nuclei in CA1 region, hematoxylin-eosine, high magnification: Deteriorated nuclei were observed
[1]; 0.5 μg MK just before ischemia, seven days after
  numbers of surviving nuclei contained in the CA1 region per unit length of CA1: 217±109 /mm
[1]; 0.5 μg MK just before ligation, seven days after
  number of nuclei showing apoptosis positive reaction (TUNEL) against the total number of cells: 7.8±19.8
[1]; 1 μg MK just before ischemia, seven days after
  numbers of surviving nuclei contained in the CA1 region per unit length of CA1: 228±84 /mm
[1]; 1 μg MK just before ligation, seven days after
  number of nuclei showing apoptosis positive reaction (TUNEL) against the total number of cells: 11.0±14.7
[1]; 2 μg MK just before ischemia, seven days after
  numbers of surviving nuclei contained in the CA1 region per unit length of CA1: 243±82 /mm
[1]; 2 μg MK just before ligation, seven days after
  number of nuclei showing apoptosis positive reaction (TUNEL) against the total number of cells: 4.6±12.2
[1]; four weeks after ischemia
  numbers of neurocytes in CA1: 157±60 cells/mm
[1]; one week after ischemia
  numbers of neurocytes in CA1: 219±74 cells/mm
[1]; three weeks after ischemia
  numbers of neurocytes in CA1: 185±83 cells/mm
[1]; two weeks after ischemia
  numbers of neurocytes in CA1: 152±72 cells/mm
[1]; 0.5 to 2 μg MK into the ventricle just before ischemic injury, seven days after
  nuclei in CA1 region, hematoxylin-eosine, high magnification: survived circle nuclei were observed
[1]; 0.5 to 2 μg MK just before ligation, seven days after
  TUNEL stained nuclei in hippocampal region CA1: Few stained nuclei were observed
[1]; 28 days after the injury
  activity against delayed neuronal death: showed a significant activity
[1]; MK injected into the ventricle before 5 min ischemia, one week after
  cells containing TUNEL reaction positive nuclei and atrophied neurocytes in hippocampal region CA1: such neurocytes were not observed
